In patent US20140350225A1 (JINAN UNIVERSITY, published 2014):

Molecular target: T1, basic Fibroblast Growth Factor (bFGF) (human, UniProt P09038 143-288, limits assumed)
T1 construct: Bought recombinant protein; It was coated on ELISA plates; also called recombined humanized bFGF; antigen bFGF
Assay: indirect ELISA: bFGF coated at 0.5 ug/ml, anti-His-tag detection, A450
Procedure: The recombined humanized bFGF (Sigma-Aldrich Co.) was diluted to 0.5 μg/ml with carbonate buffer solution (0.05 mol/L, pH9.6) to coat ELISA plates at an amount of 100 μL/well, and incubated at 37° C. for 3 h. After discarding the liquid in the well, the plates were washed with PBST (PBS, 0.015 mol/L, pH 7.4, comprising Tween 20 0.05% (v/v)) for three times, blocked with fat-free milk-PBST 5% (wt), added with the ds-Diabody and anti-bFGF ScFv prepared according to example 1 at a certain concentration to achieve an amount of 100 μL/well. Then the plates were incubated at 37° C. for 1 h, washed with PBST for three times, added with 100 μL/well diluted anti-His-tag mouse monoclonal antibody 1:2000 (v/v) (sigma-aldrich Co.), incubated at 37° C. for 1 h, washed with PBS-T for three times again, and then added with diluted HRP marked goat anti-mouse polyclonal antibody (1:8000 (v/v) (sigma-aldrich Co.), and incubated at 37° C. for 0.5 h. After that, the plates were washed with PBS-T for 5 times, stained by TMB and detected at A450. Meanwhile, PBS was used as a negative control.

T1 sequence (P09038 143-288 limits assumed): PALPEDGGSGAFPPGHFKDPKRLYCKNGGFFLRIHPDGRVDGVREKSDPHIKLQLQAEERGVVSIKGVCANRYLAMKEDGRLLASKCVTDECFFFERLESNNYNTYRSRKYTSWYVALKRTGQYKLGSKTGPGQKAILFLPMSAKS

binding result: binds
B1: anti-bFGF humanized ds-Diabody (other)
chain: QSVLTQPASVSGSPGQSITISCTGTSSDVGGYNYVSWYQQHPGKAPKLMIYDVSNRPSGVSNRFSGSKSGNTASLTISGLQAEDEADYYCSSYTSSSTVVFGCGTKLTVLGGGGSQVQLQESGGGLVQPGGSLRLSCAASGFTFSSYEMNWVRQAPGKCLEWVSYISSSGSTIYYADSVKGRFTISRDNAKNSLYLQMNSLRAEDTAVYYCARELTGDWGAFDIWGQGTMVTVSSHHHHHH
notes: Dimer of two VL-GGGGS-VH chains joined covalently by disulfide bonds between Cys at VL 100 and Cys at VH 44; Bivalent; Expressed in HEK 293T cells and purified on a Ni column; also called disulfide bond stabilized-diabody; VL-GGGGS-VH; not shown: N-terminal residues from the vector p3XFLAG-Myc-CMV-25, if any stay on the secreted protein
